Test results reported in article PMC11461981 (Scientific Reports, 2024).
Where two headings read alike, the source gives them in different places.

What was measured:
14-3-3φ = 14-3-3φ (Arabidopsis thaliana, UniProt P19456+P46077); format: binding
[1] = target: FAM-labeled phosphopeptide derived from C-terminal AHA2 (FAM-TPSHYpTV) (Arabidopsis thaliana); assay: fluorescence polarisation
[2] = target: FAM-labeled phosphopeptide derived from C-terminal AHA2 (FAM-TPSHYpTV) (Arabidopsis thaliana); assay: fluorescence polarisation; remark: listed apart in the source
[3] = target: FAM-labeled phosphopeptide derived from C-terminal AHA2 (FAM-TPSHYpTV) (Arabidopsis thaliana); assay: fluorescence polarisation; remark: listed apart in the source
[4] = target: FAM-labeled phosphopeptide derived from C-terminal AHA2 (FAM-TPSHYpTV) (Arabidopsis thaliana); assay: fluorescence polarisation; remark: listed apart in the source

Chain of 14-3-3φ (P46077 whole entry, other chains not shown): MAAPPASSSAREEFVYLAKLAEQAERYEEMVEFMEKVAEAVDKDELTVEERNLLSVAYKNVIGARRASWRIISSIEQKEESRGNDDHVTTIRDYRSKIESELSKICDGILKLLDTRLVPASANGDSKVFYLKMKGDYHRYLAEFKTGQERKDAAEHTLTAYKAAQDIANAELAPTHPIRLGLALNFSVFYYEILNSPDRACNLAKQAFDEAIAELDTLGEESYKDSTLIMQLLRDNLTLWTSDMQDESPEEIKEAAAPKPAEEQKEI

Kd (14-3-3φ) | Kd [1] | Kd [2] | Kd [3] | Kd [4] | Compound
0.15 ± 0.03 µM | – | – | – | – | C=CC(C)(C)OC[C@H]1O[C@H](O[C@@H]2C3=C([C@H](C)COC(C)=O)C[C@H](O)[C@]3(C)/C=C3/[C@@H](COC)CC[C@H]3[C@@H](C)[C@H]2O)[C@H](O)[C@@H](OC(C)=O)[C@@H]1O [FC-A, Fusicoccin-A]
– | 0.53 µM | 0.89 µM | 0.16 µM | 0.15 µM | recombinant Arabidopsis thaliana His-14-3-3φ (from UniProt P46077 1-267) (natural protein)
